# Assay results: patent US20220290120A1
# Assays:
# [1] = target: Cas9 nickase (nCas9) (Streptococcus pyogenes) (UniProt Q99ZW2); test: cell-based or functional assay
# [2] = target: catalytically inactive Cas9 (dCas9) (Streptococcus pyogenes) (UniProt Q99ZW2); test: cell-based or functional assay
substance,measurement,setting,value
AcrIIA4 anti-CRISPR peptide,"average percent of qPCR-confirmed edited cells with nCas9 Plasmid 4 (+acrIIA4), per sgRNA unit pair; without acrIIA4 (Plasmid 5) between 73% and 100%",[1],0.7 to 5.9%
same,percent enzyme expression of gusA after dCas9 induction from Plasmid 6 (with acrIIA4); X-Gluc assay in E. coli,[2],0%
same,percent enzyme expression of lacZ after dCas9 induction from Plasmid 6 (with acrIIA4); LacZ blue white screening in E. coli,[2],27.3%
same,percent expression of flhC after dCas9 induction from Plasmid 6 (with acrIIA4); swimming motility assay in E. coli,[2],100%
